Columns and labels:
[1] = molecular target: T1, AnkB 28–847 (MBD + partial AI-c) (human, UniProt Q01484-2 28-847); assay: ITC
T1 chain: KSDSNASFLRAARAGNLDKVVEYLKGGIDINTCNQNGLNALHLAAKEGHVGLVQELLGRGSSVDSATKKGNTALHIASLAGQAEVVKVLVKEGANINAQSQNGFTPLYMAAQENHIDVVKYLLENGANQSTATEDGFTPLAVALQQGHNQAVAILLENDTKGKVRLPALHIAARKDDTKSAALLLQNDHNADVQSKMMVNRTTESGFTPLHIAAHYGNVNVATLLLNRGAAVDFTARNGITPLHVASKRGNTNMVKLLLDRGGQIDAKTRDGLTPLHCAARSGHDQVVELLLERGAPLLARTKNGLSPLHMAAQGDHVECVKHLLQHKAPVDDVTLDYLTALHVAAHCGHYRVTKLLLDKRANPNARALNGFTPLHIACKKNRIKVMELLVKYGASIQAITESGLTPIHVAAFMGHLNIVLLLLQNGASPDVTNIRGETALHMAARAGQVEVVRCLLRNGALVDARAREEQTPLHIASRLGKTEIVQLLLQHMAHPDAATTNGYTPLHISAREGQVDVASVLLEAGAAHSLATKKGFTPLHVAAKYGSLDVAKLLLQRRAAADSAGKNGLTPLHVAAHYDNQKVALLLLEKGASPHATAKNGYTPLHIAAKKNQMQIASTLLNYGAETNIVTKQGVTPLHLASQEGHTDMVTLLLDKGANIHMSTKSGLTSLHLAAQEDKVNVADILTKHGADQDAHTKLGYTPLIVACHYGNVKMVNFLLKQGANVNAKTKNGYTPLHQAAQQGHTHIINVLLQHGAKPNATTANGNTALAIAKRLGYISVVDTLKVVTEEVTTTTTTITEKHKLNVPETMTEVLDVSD

[2] = molecular target: T2, AnkB ΔZZUD (human, UniProt Q01484-2 1-1872); assay: ITC
T2 chain: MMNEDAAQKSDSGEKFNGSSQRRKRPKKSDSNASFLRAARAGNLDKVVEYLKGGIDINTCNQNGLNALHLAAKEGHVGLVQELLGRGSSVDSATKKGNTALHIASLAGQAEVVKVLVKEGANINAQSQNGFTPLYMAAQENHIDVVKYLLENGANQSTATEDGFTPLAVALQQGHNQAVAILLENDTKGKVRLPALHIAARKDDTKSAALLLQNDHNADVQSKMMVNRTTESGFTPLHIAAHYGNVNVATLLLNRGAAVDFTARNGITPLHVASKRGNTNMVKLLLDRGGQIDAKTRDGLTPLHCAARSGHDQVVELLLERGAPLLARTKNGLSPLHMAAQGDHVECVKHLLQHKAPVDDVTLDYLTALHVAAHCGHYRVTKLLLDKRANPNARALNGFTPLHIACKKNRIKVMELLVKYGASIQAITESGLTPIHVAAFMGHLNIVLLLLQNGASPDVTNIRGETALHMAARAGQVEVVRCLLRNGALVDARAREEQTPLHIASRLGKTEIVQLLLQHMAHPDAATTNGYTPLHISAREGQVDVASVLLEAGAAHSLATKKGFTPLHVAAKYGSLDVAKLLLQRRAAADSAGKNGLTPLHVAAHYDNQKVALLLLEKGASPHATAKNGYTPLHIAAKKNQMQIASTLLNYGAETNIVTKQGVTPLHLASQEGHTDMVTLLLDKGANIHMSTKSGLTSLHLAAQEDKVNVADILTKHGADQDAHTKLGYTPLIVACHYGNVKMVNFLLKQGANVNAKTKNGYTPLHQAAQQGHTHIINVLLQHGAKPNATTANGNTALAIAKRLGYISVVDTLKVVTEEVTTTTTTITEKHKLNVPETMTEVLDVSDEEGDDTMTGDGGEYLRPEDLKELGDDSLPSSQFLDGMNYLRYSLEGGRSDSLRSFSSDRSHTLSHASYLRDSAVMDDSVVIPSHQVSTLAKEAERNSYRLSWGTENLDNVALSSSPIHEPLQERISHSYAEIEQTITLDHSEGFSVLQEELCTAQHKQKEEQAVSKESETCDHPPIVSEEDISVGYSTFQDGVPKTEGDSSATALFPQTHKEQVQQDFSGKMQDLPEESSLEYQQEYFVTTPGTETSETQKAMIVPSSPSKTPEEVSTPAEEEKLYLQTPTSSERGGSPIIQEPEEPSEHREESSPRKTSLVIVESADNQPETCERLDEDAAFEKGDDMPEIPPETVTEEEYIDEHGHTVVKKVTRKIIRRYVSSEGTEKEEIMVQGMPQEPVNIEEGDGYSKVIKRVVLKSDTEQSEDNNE

## SDDSLVDYGEGGEGQFNEDGSFIGQYTV (domain or fragment) [NF186 (aa 1187–1214)]
[1]
  Kd: 0.49 µM
[2]
  Kd: 14 µM
